These results are taken from patent publication US20230212543A1 (GENOVIS, published 2023).

Where no end group is shown, it is not given here.

Experiment [1] addresses T1, BSA (bovine serum albumin) (bovine, UniProt P02769 25-607).
T1 construct: Non-glycosylated control protein
In words: protein mix on immobilised LSH205A/E206A resin, SDS-PAGE (FIG. 11B).

Experiment [2] concerns the target T2, TNFαR (the TNFα binding part of etanercept) (human, UniProt P20333 23-257, O-glycosylated; pretreated with sialidase mixture in the binding assay).
T2 construct: also called TNFaR2; TNFaR
T2 sequence (looked up): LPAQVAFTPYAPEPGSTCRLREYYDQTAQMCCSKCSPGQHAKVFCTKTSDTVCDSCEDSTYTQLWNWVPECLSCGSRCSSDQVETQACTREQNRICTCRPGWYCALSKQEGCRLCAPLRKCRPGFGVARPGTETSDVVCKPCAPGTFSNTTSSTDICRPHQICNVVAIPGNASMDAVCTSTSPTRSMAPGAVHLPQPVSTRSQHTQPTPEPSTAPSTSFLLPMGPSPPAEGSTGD
Described as above.

In another experiment the target is T3, glycodrosocin (GD) (not fully specified (residue 11)).
T3 construct: also called glycodrosocin peptide
T3 peptide: GKPRPYSPRPTSHPRPIRV
Kind of experiment: peptide mix on immobilised double-mutant resin, LC/MS of load, flow through and eluate (FIG. 19A).

For another experiment, the target named is T4, H2686.
T4 construct: Non-glycosylated peptide
T4 peptide: YIYGSFK
The experiment is described as above.

The next experiment has as its target T5, H4062.
T5 construct: Non-glycosylated peptide
T5 peptide: KKLVFFA
Described as above.

For the next experiment, the target named is T6, H8390.
T6 construct: Non-glycosylated peptide
T6 peptide: FLPLILGKLVKGLL
The description is as above.

T1 sequence (P02769 25-607 limits assumed): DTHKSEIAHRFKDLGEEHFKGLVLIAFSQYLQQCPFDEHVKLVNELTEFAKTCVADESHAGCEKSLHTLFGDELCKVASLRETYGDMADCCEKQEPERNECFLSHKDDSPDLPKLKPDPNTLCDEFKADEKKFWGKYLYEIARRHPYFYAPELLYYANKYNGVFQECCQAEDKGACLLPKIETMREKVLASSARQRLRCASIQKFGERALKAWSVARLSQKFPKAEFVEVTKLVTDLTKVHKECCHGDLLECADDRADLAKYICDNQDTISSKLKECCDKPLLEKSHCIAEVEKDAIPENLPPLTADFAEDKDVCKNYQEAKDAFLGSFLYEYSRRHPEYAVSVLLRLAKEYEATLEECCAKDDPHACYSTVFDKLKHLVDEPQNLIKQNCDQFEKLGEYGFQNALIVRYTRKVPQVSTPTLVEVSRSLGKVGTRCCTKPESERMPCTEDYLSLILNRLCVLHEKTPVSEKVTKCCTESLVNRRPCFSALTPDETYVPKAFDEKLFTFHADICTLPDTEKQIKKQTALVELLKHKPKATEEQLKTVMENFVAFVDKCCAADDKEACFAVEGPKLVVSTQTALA

B1: LSH205A/E206A (designed binder)
chain: MEVTVPDALKDRIALKKTARQLNIVYFLGSDTEPVPDYERRLSELLLYLQQFYGKEMQRHGYGARSFGLDIKSPGRVNIIEYKAKNPAAHYPYENGGGWKAAQELDEFFKAHPDRKKSQHTLIIMPTWNDEKNGPDNPGGVPFYGMGRNCFALDYPAFDIKHLGQKTREGRLLTKWYGGMAAALGHGLNLPHNHQTASDGKKYGTALMGSGNYTFGTSPTFLTPASCALLDACEVFSVTPSQQFYEGKPEVEVGDVAISFKGDQILVSGNYKSPQTVKALNVYIQDPPYAVNQDYDAVSFSRRLGKKSGKFSMKIDKKELEGLNNNEFRISLMFILANGLHMQKHFTFHWDALQDYRDGSKSGSGHHHHHH
notes: also called LSHE206AA; Amuc1119H205A/E206A
As for B1, the binding result in experiment [1] is recorded as “no binding”; in experiment [2], “binds”; with glycodrosocin (GD), “binds”; with H2686, “no binding”; with H4062, “no binding”; with H8390 it was “no binding”.
